Assay results taken from publication PMC2830701 (The EMBO Journal, 2009).

Molecular target: Bovine Hsc70 (1–554) (bovine, UniProt P19120 1-554)
Assay: co-sedimentation

Bovine Hsc70 (1–554), sequence (P19120 1-554): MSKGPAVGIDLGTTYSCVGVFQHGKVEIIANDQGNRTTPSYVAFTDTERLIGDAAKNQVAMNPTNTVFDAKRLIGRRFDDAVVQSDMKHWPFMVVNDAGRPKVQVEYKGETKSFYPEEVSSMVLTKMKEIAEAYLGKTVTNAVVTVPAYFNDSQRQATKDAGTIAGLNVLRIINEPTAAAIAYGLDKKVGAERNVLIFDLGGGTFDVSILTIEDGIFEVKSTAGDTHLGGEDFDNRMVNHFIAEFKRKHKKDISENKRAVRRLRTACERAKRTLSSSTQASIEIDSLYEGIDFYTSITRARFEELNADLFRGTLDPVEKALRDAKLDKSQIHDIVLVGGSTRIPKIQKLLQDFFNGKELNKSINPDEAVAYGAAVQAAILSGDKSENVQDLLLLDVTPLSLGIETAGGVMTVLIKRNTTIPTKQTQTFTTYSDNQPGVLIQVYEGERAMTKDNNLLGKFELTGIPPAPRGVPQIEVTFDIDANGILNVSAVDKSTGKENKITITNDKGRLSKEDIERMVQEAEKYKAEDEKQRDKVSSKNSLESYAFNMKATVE

binding result: binds
B1: Bovine auxilin (547–910) (domain or fragment, UniProt Q27974 547-910, looked up)
chain: PSGPTSTQSTPRRSATSTSASPTLRVGEGATFDPFGAPSKPSGQDLLGSFLNTASASSDPFLQPTRSPSPTVHASSTPAVNIQPDVSGAWDWHTKPGGFGMGSKSAATSPTGSSHGTPTHQNKPQTLDPFADLGTLGGSSFASKPSTPTGLGGGFPPLSSPQKASPQPMGGGWQQGGGYNWQQTQSKPQSSMPHSSPQNRPNYNVSFSSMPGGQNERGKAAANLEGKQKAADFEDLLSGQGFNAHKDKKGPRTIAEMRKEEMAKEMDPEKLKILEWIEGKERNIRALLSTMHTVLWAGETKWKPVGMADLVTPEQVKKVYRKAVLVVHPDKATGQPYEQYAKMIFMELNDAWSEFENQGQKPLY
